# Literature values as cited in paper PMC7134607.
# Molecular target: SARS main protease (SARS coronavirus) (UniProt P0C6X7)
substance,measurement,value
SARS main protease (from UniProt P0C6X7),Kd,100 µM
